B1: OR4K15 (parent)
chain: GUUAACGGUCAUAGGCCAUGGAAACUAGGAGCACCAUUUCGCUGCCAGUGAAGAAAUGAACAAAGAAAAUCUGGGCCAGGCAGGCAUCAAAAGAAAUAGUCUUGCGCUCAACCAGAAAGUCUGUAAUCAUUUUAAGGGUA

Variants of: B1
Test: self-cleavage, relative activity (ratio to wild type); higher = more cleavage; in vitro, sequencing; the parent is a self-cleaving ribozyme

Variant | self-cleavage
GUUAACGGUCAUAGGCCAUGGAAACUAGGACCACCAUUUCGCUGCCAGUGAAGAAGUGAACAAAGAAAAUCUGGGCCAGGCAGGCAUCAAAAGAAAUAGUCUUGCGCUCAACCAGAAAGUCUGUAAUCAUUUUAAGGGUA [G31C A56G] | 1.63
GUUAACGGUCAUAGGCCAUGGAAACUAGGAUCACCAUUUCGCUGCCAGUGAAGAAAUGAACAGAGAAAAUCUGGGCCAGGCAGGCAUCAAAAGAAAUAGUCUUGCGCUCAACCAGAAAGUCUGUAAUCAUUUUAAGGGUA [G31U A63G] | 2.02
GUUAACGGUCAUAGGCCAUGGAAACUAGGAACACCAUUUCGCUGCCAGUGAAGAAAUGAACAAAGAAAAUCUGGGCCAGGCAGGCAUCAAUAGAAAUAGUCUUGCGCUCAACCAGAAAGUCUGUAAUCAUUUUAAGGGUA [G31A A91U] | 1.99
GUUAACGGUCAUAGGCCAUGGAAACUAGGAUCACCAUUUCGCUGCCAGUGAAGAAAUGAACAAAGAAAAUCUGGGCCAGGCAGGCAUCAAAAGAAAUAGUCUUGCGCUCAACCAGAAAGUCUGUAAUCAUUUCAAGGGUA [G31U U133C] | 2.47
GUUAACGGUCAUAGGCCAUGGAAACUAGGAGUACCAUUUCGCUGCCAGUGAGGAAAUGAACAAAGAAAAUCUGGGCCAGGCAGGCAUCAAAAGAAAUAGUCUUGCGCUCAACCAGAAAGUCUGUAAUCAUUUUAAGGGUA [C32U A52G] | 1.73
GUUAACGGUCAUAGGCCAUGGAAACUAGGAACACCAUUUCGCUGCCAGUGAAGAAAUGAACAAAGAAAAUCUGGGCCAGGCAGGCAUCAAAAGAAAUAGUCUCGCGCUCAACCAGAAAGUCUGUAAUCAUUUUAAGGGUA [G31A U103C] | 0.46
GUUAACGGUCAUAGGCCAUGGAAACUAGGACCACCAUUUCGCUGCCAGUGAAGAUAUGAACAAAGAAAAUCUGGGCCAGGCAGGCAUCAAAAGAAAUAGUCUUGCGCUCAACCAGAAAGUCUGUAAUCAUUUUAAGGGUA [G31C A55U] | 1.76
GUUAACGGUCAUAGGCCAUGGAAACUAGGAGUACCAUUUCGCUGCCUGUGAAGAAAUGAACAAAGAAAAUCUGGGCCAGGCAGGCAUCAAAAGAAAUAGUCUUGCGCUCAACCAGAAAGUCUGUAAUCAUUUUAAGGGUA [C32U A47U] | 0.9
GUUAACGGUCAUAGGCCAUGGAAACUAGGAUCACCAUUUCGCUGCCAGUGAAGAAAUGAACAAAGAAGAUCUGGGCCAGGCAGGCAUCAAAAGAAAUAGUCUUGCGCUCAACCAGAAAGUCUGUAAUCAUUUUAAGGGUA [G31U A68G] | 1.26
GUUAACGGUCAUAGGCCAUGGAAACUAGGACCACCAUUUCGCUGCCAGUGAAGAAAUGAACAAAGAAAAACUGGGCCAGGCAGGCAUCAAAAGAAAUAGUCUUGCGCUCAACCAGAAAGUCUGUAAUCAUUUUAAGGGUA [G31C U70A] | 0.94
GUUAACGGUCAUAGGCCAUGGAAACUAGGACCACCAUUUCGCUGCCAGUGAAGAAAUGAACAAAGAAAAUCUGGGCCAGGCAGGCAUCAGAAGAAAUAGUCUUGCGCUCAACCAGAAAGUCUGUAAUCAUUUUAAGGGUA [G31C A90G] | 1.73
GUUAACGGUCAUAGGCCAUGGAAACUAGGAACACCAUUUCGCUGCCAGUGAAGAAAUGAACAAAGAAAAUCUGGGCCAGGCAGGCAUCAAAAGAAAUAGUCUUGCGCUCAACCAGAAAGUCCGUAAUCAUUUUAAGGGUA [G31A U122C] | 2.04
GUUAACGGUCAUAGGCCAUGGAAACUAGGAACACCAUUUCGCUGCCAGUGAAGAAAUGAACAAAGAAAAUCUUGGCCAGGCAGGCAUCAAAAGAAAUAGUCUUGCGCUCAACCAGAAAGUCUGUAAUCAUUUUAAGGGUA [G31A G73U] | 0.3
GUUAACGGUCAUAGGCCAUGGAAACUAGGAACACCAUUUCGCUGCCAGUGAAGAAAUGAACAAAGAAAAACUGGGCCAGGCAGGCAUCAAAAGAAAUAGUCUUGCGCUCAACCAGAAAGUCUGUAAUCAUUUUAAGGGUA [G31A U70A] | 1.73
GUUAACGGUCAUAGGCCAUGGAAACUAGGAGAACCAUUUCGCUGCCGGUGAAGAAAUGAACAAAGAAAAUCUGGGCCAGGCAGGCAUCAAAAGAAAUAGUCUUGCGCUCAACCAGAAAGUCUGUAAUCAUUUUAAGGGUA [C32A A47G] | 0.49
GUUAACGGUCAUAGGCCAUGGAAACUAGGAGAACCAUUUCGCUGCCUGUGAAGAAAUGAACAAAGAAAAUCUGGGCCAGGCAGGCAUCAAAAGAAAUAGUCUUGCGCUCAACCAGAAAGUCUGUAAUCAUUUUAAGGGUA [C32A A47U] | 1.05
GUUAACGGUCAUAGGCCAUGGAAACUAGGAUCACCAUUUCGCUGCCAGUGAAGAAAUGAACAAAGAAAAUCUGGGCCAGGCAGGCAUCAGAAGAAAUAGUCUUGCGCUCAACCAGAAAGUCUGUAAUCAUUUUAAGGGUA [G31U A90G] | 1.32
GUUAACGGUCAUAGGCCAUGGAAACUAGGAGAACCAUUCCGCUGCCAGUGAAGAAAUGAACAAAGAAAAUCUGGGCCAGGCAGGCAUCAAAAGAAAUAGUCUUGCGCUCAACCAGAAAGUCUGUAAUCAUUUUAAGGGUA [C32A U39C] | 1.42
GUUAACGGUCAUAGGCCAUGGAAACUAGGAUCACCAUUUCGCUGCCAGUGAAGAAAUGAACAAAGAAAAUCUGGGCCAGGCAGGCAUCAAAAGAAAUAGUCUUGCGCUCAACCAGAAAGUCUGUAAUCAUUUUAAGGGUA [G31U] | 1.7
GUUAACGGUCAUAGGCCAUGGAAACUAGGACCACCAUUUCGCUGCCAGUGAAGAAAUGAACAAAGAAAAUCUGGGCCAGGCAGGCAUCAAAAGAAAUAGUCUUGCGCUCAACCAGAAAGUCUGUAAUCAUUUUAAGGGUA [G31C] | 1.79
GUUAACGGUCAUAGGCCAUGGAAACUAGGAACACCAUUUCGCUGCCAGUGAAGAAAUGAACAAAGAAAAUCUGGGCCAGGCAGGCAUCAAAAGAAAUAGUCUUGCGCUCAACCAGAAAGUCUGUAAUCACUUUAAGGGUA [G31A U130C] | 1.91

Variant | self-cleavage
GUUAACGGUCAUAGGCCAUGGAAACUAGGAGAACCAUUUCGCUGCCAGUGAAGAAAUGAACAAAGAAAAUCUGGGCCAAGCAGGCAUCAAAAGAAAUAGUCUUGCGCUCAACCAGAAAGUCUGUAAUCAUUUUAAGGGUA [C32A G79A] | 0.17
GUUAACGGUCAUAGGCCAUGGAAACUAGGACCACCAUUUCGCUGCCAGUGAAGAAAUGAACAAAGAAAAUCUGGGCCAGGCAGGCAUCAAAAGAAAUAGUCUUGCGCUCAACCAGAAAGUCUGUGAUCAUUUUAAGGGUA [G31C A125G] | 0.93
GUUAACGGUCAUAGGCCAUGGAAACUAGGACCACCAUUUCGCUGCCAGUGAAGAAAUGAACAAAGAAAAUCUGGGCCAGGCAGGCAUCAAAAGAAAUAGUCUUGCGCUCAACCAGAAAGUCAGUAAUCAUUUUAAGGGUA [G31C U122A] | 1.89
GUUAACGGUCAUAGGCCAUGGAAACUAGGAUCACCAUUUCGCUGCCAGUGAAGAAAUGAACAAAGAAAAUCUGGGCCAGGCUGGCAUCAAAAGAAAUAGUCUUGCGCUCAACCAGAAAGUCUGUAAUCAUUUUAAGGGUA [G31U A82U] | 0.27
GUUAACGGUCAUAGGCCAUGGAAACUAGGAUCACCAUUUCGCUGCCAGUGAAGAAAUGAACAAAGAAAAUCUGGGCCAGGCGGGCAUCAAAAGAAAUAGUCUUGCGCUCAACCAGAAAGUCUGUAAUCAUUUUAAGGGUA [G31U A82G] | 0.19
GUUAACGGUCAUAGGCCAUGGAAACUAGGAACACCAUUUCGCUGCCAGUGAAGAAAUGAACAAAGAAAAUCUGGGCCAGGCAGGCAUCAAAAGAAAUAGUCUUGCGCCCAACCAGAAAGUCUGUAAUCAUUUUAAGGGUA [G31A U108C] | 0.03
GUUAACGGUCAUAGGCCAUGGAAACUAGGACCACCAUUUCGCUGCCAGUGAAGAAAUGAACAAAGAAAAUCUGGGCCAGGCAGGCAUCAAAAGAAAUAGUCCUGCGCUCAACCAGAAAGUCUGUAAUCAUUUUAAGGGUA [G31C U102C] | 1.92
GUUAACGGUCAUAGGCCAUGGAAACUAGGAGAACCAUUUCGCUGCCAGUGAAGAAAUGAACAAAGAAAAUCUUGGCCAGGCAGGCAUCAAAAGAAAUAGUCUUGCGCUCAACCAGAAAGUCUGUAAUCAUUUUAAGGGUA [C32A G73U] | 0.21
GUUAACGGUCAUAGGCCAUGGAAACUAGGAUCACCAUUUCGCUGCCAGUGAAGAAAUGAACAAAGAAAAUCUGGGCCAGGCAGGCAUCAAAAGAAAUAGUCUUGCGCUCGACCAGAAAGUCUGUAAUCAUUUUAAGGGUA [G31U A110G] | 0.24
GUUAACGGUCAUAGGCCAUGGAAACUAGGAAUACCAUUUCGCUGCCAGUGAAGAAAUGAACAAAGAAAAUCUGGGCCAGGCAGGCAUCAAAAGAAAUAGUCUUGCGCUCAACCAGAAAGUCUGUAAUCAUUUUAAGGGUA [G31A C32U] | 1.42
GUUAACGGUCAUAGGCCAUGGAAACUAGGAGUACCAUUUCGCUGCCAGUGAAGGAAUGAACAAAGAAAAUCUGGGCCAGGCAGGCAUCAAAAGAAAUAGUCUUGCGCUCAACCAGAAAGUCUGUAAUCAUUUUAAGGGUA [C32U A54G] | 1.37
GUUAACGGUCAUAGGCCAUGGAAACUAGGAUCACCAUUUCGCUGCCAGUGAAGAAAUGAACAAAGAAAAUCUGGGCCAGGCAGGCAUCAAAAGAAAUAGUCUUGCGCUCAACCAGAAAGCCUGUAAUCAUUUUAAGGGUA [G31U U120C] | 1.21
GUUAACGGUCAUAGGCCAUGGAAACUAGGAGUACCAUUUCGCUGCCAGUGAAGAAAUGAACAAGGAAAAUCUGGGCCAGGCAGGCAUCAAAAGAAAUAGUCUUGCGCUCAACCAGAAAGUCUGUAAUCAUUUUAAGGGUA [C32U A64G] | 1.66
GUUAACGGUCAUAGGCCAUGGAAACUAGGAGAACCAUUUCGCUGCCAGUGAAGAAAUGAACAAAGAAAAUCUGGGCCAGGCAGGCAUCAAAAGAAAUAGUCUUGCGCCCAACCAGAAAGUCUGUAAUCAUUUUAAGGGUA [C32A U108C] | 0.03
GUUAACGGUCAUAGGCCAUGGAAACUAGGAACACCAUUCCGCUGCCAGUGAAGAAAUGAACAAAGAAAAUCUGGGCCAGGCAGGCAUCAAAAGAAAUAGUCUUGCGCUCAACCAGAAAGUCUGUAAUCAUUUUAAGGGUA [G31A U39C] | 1.68
GUUAACGGUCAUAGGCCAUGGAAACUAGGACCACCAUUUCGCUGCCAGUGAAGAAAUGAACAAAGAAAAUCUGGGCCAGGCAGGCAUCAAAAGAAAUAGUCUUGCGCCCAACCAGAAAGUCUGUAAUCAUUUUAAGGGUA [G31C U108C] | 0.03
GUUAACGGUCAUAGGCCAUGGAAACUAGGAGUACCUUUUCGCUGCCAGUGAAGAAAUGAACAAAGAAAAUCUGGGCCAGGCAGGCAUCAAAAGAAAUAGUCUUGCGCUCAACCAGAAAGUCUGUAAUCAUUUUAAGGGUA [C32U A36U] | 1.76
GUUAACGGUCAUAGGCCAUGGAAACUAGGAGGACCAUUUCGCUGCCAGUGAAGAAAUGAACAAAGAAAAUCUGGGCCAGGCAGGCAUCAAAAGAGAUAGUCUUGCGCUCAACCAGAAAGUCUGUAAUCAUUUUAAGGGUA [C32G A95G] | 1.87
GUUAACGGUCAUAGGCCAUGGAAACUAGGAGUACCAUUUCGCUGCCAGUGAAGAAAUGAACAGAGAAAAUCUGGGCCAGGCAGGCAUCAAAAGAAAUAGUCUUGCGCUCAACCAGAAAGUCUGUAAUCAUUUUAAGGGUA [C32U A63G] | 1.39
GUUAACGGUCAUAGGCCAUGGAAACUAGGAACACCAUUUCGCUGCCAGUGAAGAAAUGAACAAAGAAAAUCUGGGCCAGGCAGGCAACAAAAGAAAUAGUCUUGCGCUCAACCAGAAAGUCUGUAAUCAUUUUAAGGGUA [G31A U87A] | 1.76

Reference: the RNAGym collection of RNA variant scans (doi:10.7554/elife.90254)
